These results are taken from paper PMC6260146.

The experiment deals with CR3 (CD11b/CD18) on peripheral blood monocytes (human (endogenous in peripheral blood monocytes)) (UniProt P11215). In words: flow cytometry on cells; peripheral blood monocytes preincubated with unlabelled FH5-7 (14 μg/ml, 15 min on ice by the methods; 12 μg/ml, 30 min by the legend) or PBS, then a panel of FITC-, PE- or APC-labeled receptor specific antibodies, 45 min at 4°C; read-out: mean fluorescence of FH5-7 treated cells divided by PBS treated cells.

Regarding “recombinant fragment FH5-7 of Factor H (domain or fragment)”, the anti-CD11b antibody binding in the presence of FH5-7 relative to without FH5-7 (1.0) (ratio of mean fluorescence) is less than 0.8.
